Experimental data: article PMC8316566

Biological target: T1, MRM3 (human (endogenous in HEK293)), Q9HC36
T1 chain: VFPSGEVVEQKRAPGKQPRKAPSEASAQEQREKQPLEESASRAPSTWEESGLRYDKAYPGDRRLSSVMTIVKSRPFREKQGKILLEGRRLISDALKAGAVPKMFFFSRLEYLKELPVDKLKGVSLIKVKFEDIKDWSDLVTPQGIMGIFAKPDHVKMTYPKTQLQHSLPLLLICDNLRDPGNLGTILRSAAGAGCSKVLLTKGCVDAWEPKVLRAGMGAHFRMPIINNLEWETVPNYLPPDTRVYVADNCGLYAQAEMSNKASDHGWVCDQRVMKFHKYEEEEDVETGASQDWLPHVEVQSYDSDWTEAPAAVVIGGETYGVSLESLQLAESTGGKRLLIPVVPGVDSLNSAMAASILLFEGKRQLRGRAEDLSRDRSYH
Assay: cryo-EM structure; native 39S pre-mitoribosomal particles isolated by anti-Flag affinity purification (MALSU1 or GTPBP10 bait; state 1 also with particles from a uL17 bait) from HEK293 cells; single-particle analysis, average resolutions between 3.1 Å and 5.7 Å; factors fitted as rigid-body homology models or crystal structures
Conditions: remark: other sources report otherwise

B1: MRM3, Q9HC36 41-420 (natural protein)
chain: VFPSGEVVEQKRAPGKQPRKAPSEASAQEQREKQPLEESASRAPSTWEESGLRYDKAYPGDRRLSSVMTIVKSRPFREKQGKILLEGRRLISDALKAGAVPKMFFFSRLEYLKELPVDKLKGVSLIKVKFEDIKDWSDLVTPQGIMGIFAKPDHVKMTYPKTQLQHSLPLLLICDNLRDPGNLGTILRSAAGAGCSKVLLTKGCVDAWEPKVLRAGMGAHFRMPIINNLEWETVPNYLPPDTRVYVADNCGLYAQAEMSNKASDHGWVCDQRVMKFHKYEEEEDVETGASQDWLPHVEVQSYDSDWTEAPAAVVIGGETYGVSLESLQLAESTGGKRLLIPVVPGVDSLNSAMAASILLFEGKRQLRGRAEDLSRDRSYH
  stoichiometry N: 2
